The chains are these.
B1: TPR t1 (parent)
chain: GACCAAUCUGCCCUCAGAGCUCGAGAACAUCUUCGGAUGCAGAGGAGGCAGGCUUCGGUGGCGCGAUAGCGCCAACGUCCUCAACCUCCAAUGCAUCCCACCACAUGAUGAUGCCUGAAGAGCCUUGGUUUUUUG

In this series the parent is B1. The series can be described thus: polymerase ribozyme fitness, log enrichment relative to wild type (log ratio); higher = more active; in vitro selection for triplet polymerase activity. The procedure, abridged: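 After PCR construction and transcription, each subunit's mutant library from a heterodimeric triplet polymerase ribozyme was annealed with a biotinylated primer, the partner subunit and triplets. Incubation was frozen, at −7 °C, and extended constructs were gel-excised, bound to streptavidin beads and amplified by RT-PCR, in one selection round done in triplicate. Fitness is the logarithm of a genotype's enrichment divided by that of the wild type, from inverse-variance-weighted replicate averages of Illumina-sequenced inputs and outputs. The base of the logarithm is 2, and genotypes needed ≥10 input reads and ≥1 read per output.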
Regarding GACCGAUCUGCCCUCAGAGCUCGAGAACAUCUUCGGAUGCAGAGGAGGCAGGCUUCGGUGGCGCGAUAGCGCCAACGUCCUCAACCUCCAAUGAAUCCCACCACAUGAUGAUGCCUGAAGAGCCUUGGGUUUUUG [A5G C94A U129G], the “polymerase ribozyme fitness (log ratio)” value was -1.49. The value for GACCAAUCUGCCCUCAGAGCUCGAGAACAUCUUCGGAUGAAGAGGAGGCAGGCUUGGGUGGCGCGAUAGCGCCAACGUCCUCAACCUCCAAUGCAUCCCACCACAUGAUGAUGCCUGAAGAGCCUUGGUUUUUUG [C40A C56G] was -2.58; that for GACCAAUCUGCCCUCAGAGCUCGAGAACAUCUUCGGAUGCAGAGGAGGCAGGCUUCGGUGGCGCGAUAGCGCCAACGUUCUCAACCUCCAAUGCAUCCCACCACAUGAUGAUGCCUGAAUAGCCUUGGUUUUUUG [C79U G120U] was 0.0692. The value for GACCAAUCUGCCCUCAGAGCUCGAGAACAUCUUCGGAUGCAGAGGAGGCAGGCUUCGGUGGCGCGAUAGCGCCAACUUCCUCAACCUCCAAGGCAUCCCACCACAUGAUGAUGCCUGAAGAGCCUUGGUUUUUUG [G77U U92G] was -2.77; that for GACCAAUCUGCCCUCAGAGCUCGAGAACAUCUUCGGAUGCAGAGGAGGCAGGCUUCGGUGGCGCGAUAGCACCAACGUCCUCAACCUCCAAUGCAUCCGCCCACAUGAUGAUGCCUGAAGAGACUUGGUUUUUUG [G71A C99G A100C C123A] was -8.12. The value for GACCAAUCCGCCCUCAGAGCUCGAGAACAUCUUCGGAUGCAGAGGAGGCAGGCUUCGGUAGCGCGAUAGCGCCAACGUCCUCAACCUCCAAUGCAUCCCACCACAUGAUGAUGCCUGAAGAGCCUUGGUUUUUUG [U9C G60A] was 0.405; that for GACCAAUCUGCCCACAGAGCUCGAGAACAUCUUCGGAUGCAGAGGAGGCAGGCUUCGGUGGCGCGAUAGCACCAACGUCCUCAACCUCCAAUGCAUCCCACCACAUGAUGAUGCCUGAAGAGCCUUGGUAUUUUG [U14A G71A U130A] was -3.52; that for GACCAAUCUGCCCUCAGAGCUCGAGAACAUCUUCGGAUGCAGAGGAGGUAGGCUGCGGUGGCGCGAUAGCGCCAACGUCCUCAACCUCCAAUGCAUCCCACCACAUGAUGAUGCCUGAAGAGCCUUGGUUUUUUG [C49U U55G] was -0.735. For GACCAAUCUGCCCUCAUAGCUCGAGAACAUCUUCGGAUGCAGAGGAGGCAGGCUUCGGUGGCGCGAUAGCGCCAACGUCCUCAACCUCCAAUGCAUCCCACCACAUGAUGAUGCCUGAAGAGCCUUGGUAUUUUG [G17U U130A], the “polymerase ribozyme fitness (log ratio)” value was -3.3.

Consider GACCACUCUGCCCUCAGAGCUCGAGAACUUCUUCGGAUGCAGAGGAGGCAGGCUUUGGUGGCGCGAUAGCGCCAACGUCCUCAACCUCCAAUGAAUCCCACCACAUGAUGAGGCCUGAAGAGCCUUGGUUUUUUG [A6C A29U C56U C94A U112G], for which the “polymerase ribozyme fitness (log ratio)” value is -3.35. The value for GACCAAUCUGGCCUCAGAGCUCGAGAACAUCUUCGGAUGCAGAGGAGGCAGGCUUCGGUGGUGCGAUAGCGCCAACGUCCUCAACCUCCAAUGCAUCCCAGCACAUGAUGAUGCCUGAAGAGCCUUGGUUGUUUG [C11G C62U C101G U131G] was -3.31; that for GACCAAUCUGCCCUGAGAGCUCGAGAACAUCUUCGGAUGCAGAGGAGGCCGGCUUCGGUGGCGCGAUAGCGCCAACGUCCUCAACCUCCAAUGCAUCCCACCACAUGAUGAUGCCUGAAGAGCCUUGGUUUUUUG [C15G A50C] was -2.38; that for GACCAAUUUGCCCUCAGAGCUCGAGAACAUCUUCGGAUGCAGAGGAGGCAUGCUUCGGUGGCGCGAUAGCGCCAACGUCCUCAACCUCCAAUGCAUCCCACCACAUGAUGAUGCCUGAAGAGCCUUGGUUUUUUG [C8U G51U] was -2.45. The value for GACCAAUCUGCCCUCAGAGCUCGAGAACAUCUUCGGAUGCAGAGGAGGCAGGCUUCGGUGGCGCGAUAGCGCCAACGUCCUCACCCUCCAAUGCAUCCCACCACAUGAUGAUGCCUGAAGAGCUUUGGUUUUUUG [A84C C124U] was 1.55; that for GACCAAUCUGCCCUCAGAGCUCGAGAACAUCUUCGGAUGCAGAGGAGGCAGGCUUCGGUGGCGCGAUAGCGCCAACGUCCUCAACCUCCAAUGCAUCCCACCACAUGAUGAUGCCUGAAGAGCCUUGAUGUUUUG [G128A U130G] was -1.43; that for GACCAAUCUGCCCUCAGAGCUCGAGAACAUCUUCGGAUGCAGAGGAGGGAGGCUUGGGUGGCGCGAUAGCGCCAACGUCCUCAACCUCCAAUGCAUCCCACCACAUGAUGAUGCCUGAAGAGCCUUGGUUUUUUG [C49G C56G] was -2.98.

Take GACCAAUCUGCCCUCAGAGCUCGAGAACAUCUUCGGAUGCAGAGGAGGCAGCCUUUGGUGGCGCGAUAGCGCCAACGUCCUUACCCUCCAAUGCAUCCCACCACAUGAUGAUGCCUGAAGAGCCUUGGUUUUUUG [G52C C56U C82U A84C]: the “polymerase ribozyme fitness (log ratio)” value was 0.272. The value for GACCAAUCUGCCCUCAGAGCUCGAGAACAUCUUCGGAUGCAGAGGAGGCAGGCUUCGGUGGCGCGAUAGCGCCAACGUCCUCAACCUCCAAUGCAUCCCACCACAUGAUGAUGCCUGAAGAGCCUUGGUAUUAUG [U130A U133A] was -1.4; that for GACCAAUUUGCCCUCAGAGCUCGAGAACAUCUUCGGAUGCAGAGGAGGCAGGCUUCGGUGGCGCGAUAGUGCCAACGUCCUCAACCUCCAAUGCAUUCCACCACAUGAUGAUGCCUGAAGAGCUUUGGUUAUUUG [C8U C70U C97U C124U U131A] was 0.416.

Turning to GGCCAAUCUGCCCUCAGAGCUCGAGAACAUCUUCGGAUGCAGAGGAGGCAGGCUUCGGUGGCGCGAUAGCGCCAACGUCCUCAACCUCCAAUGCAUUCCACCACAUGAUGAUUGCUGAAGAGCCUUGGUUUUUUG [A2G C97U G113U C114G], the “polymerase ribozyme fitness (log ratio)” value was -3.04.

Take GACCAAUUUGCCCUCAGAGUUCGAGAACAUCUUCGGAUGCAGAGGAGGCAGGCUUCGGUGGCGCGAUAGCGCCAACGCCCUGAACCUCCAAUGCAUCCCACCACAUGAUGAUGCCUGAAGAGUCUUGGUUUUUUG [C8U C20U U78C C82G C123U]: the “polymerase ribozyme fitness (log ratio)” value stood at 0.246.

Source of the values: the RNAGym collection of RNA variant scans (doi:10.1073/pnas.2313332121).
